# “Also recorded” adds a separate entry of the source.
# Experiments:
# [1] = in vivo; cited from earlier work
# α5GABAA receptors = target: T1, α5GABAA receptors (Homo sapiens, UniProt P18507+P31644); parameters: host or cells: human volunteers (brain in vivo); details: human volunteers, given before ethanol; cited from earlier work
# T1 sequence (P31644 32-462): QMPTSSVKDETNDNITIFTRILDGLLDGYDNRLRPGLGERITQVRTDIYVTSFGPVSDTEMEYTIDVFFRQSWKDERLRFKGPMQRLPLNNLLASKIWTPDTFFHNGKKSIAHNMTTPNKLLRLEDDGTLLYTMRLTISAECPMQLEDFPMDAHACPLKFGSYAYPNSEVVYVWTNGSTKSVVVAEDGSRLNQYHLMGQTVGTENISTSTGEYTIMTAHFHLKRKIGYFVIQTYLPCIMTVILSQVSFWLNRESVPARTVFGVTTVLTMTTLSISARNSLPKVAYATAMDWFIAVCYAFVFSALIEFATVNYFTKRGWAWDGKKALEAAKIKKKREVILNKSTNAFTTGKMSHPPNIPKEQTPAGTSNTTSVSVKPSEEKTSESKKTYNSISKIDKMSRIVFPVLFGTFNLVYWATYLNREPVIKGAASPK
# T1 sequence (P28472 26-473 partner): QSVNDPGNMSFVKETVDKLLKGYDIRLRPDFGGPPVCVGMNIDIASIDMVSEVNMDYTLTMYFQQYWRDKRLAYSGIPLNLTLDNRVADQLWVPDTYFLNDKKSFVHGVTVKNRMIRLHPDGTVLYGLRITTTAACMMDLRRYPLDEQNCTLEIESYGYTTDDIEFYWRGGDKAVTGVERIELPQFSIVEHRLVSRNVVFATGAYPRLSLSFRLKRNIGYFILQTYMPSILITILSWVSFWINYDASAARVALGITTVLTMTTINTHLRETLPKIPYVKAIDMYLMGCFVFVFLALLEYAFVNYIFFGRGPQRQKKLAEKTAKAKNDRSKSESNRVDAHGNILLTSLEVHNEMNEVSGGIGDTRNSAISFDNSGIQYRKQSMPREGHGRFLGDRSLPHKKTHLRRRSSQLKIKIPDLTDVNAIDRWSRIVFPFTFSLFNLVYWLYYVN
# T1 sequence (P18507 40-467 limits assumed): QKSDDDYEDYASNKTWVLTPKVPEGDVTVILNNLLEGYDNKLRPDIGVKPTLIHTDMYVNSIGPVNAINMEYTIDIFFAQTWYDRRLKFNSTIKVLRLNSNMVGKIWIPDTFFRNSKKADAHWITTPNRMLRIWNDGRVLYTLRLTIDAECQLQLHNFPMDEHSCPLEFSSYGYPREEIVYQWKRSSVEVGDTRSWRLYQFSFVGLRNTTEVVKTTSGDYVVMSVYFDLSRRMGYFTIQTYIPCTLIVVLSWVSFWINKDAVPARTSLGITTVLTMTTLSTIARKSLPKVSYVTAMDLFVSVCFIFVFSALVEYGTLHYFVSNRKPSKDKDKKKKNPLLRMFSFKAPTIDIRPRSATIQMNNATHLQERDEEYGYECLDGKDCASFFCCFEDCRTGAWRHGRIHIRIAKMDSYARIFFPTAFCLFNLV
# α5GABAARs [2] = experiment: Tonic current in hippocampal neuron-microglia co-culture; format: cell-based, mice; details: LPS 100 ng ml^−1 overnight; IL-1ra 250 ng ml^−1
# synaptic GABAARs = experiment: Miniature inhibitory postsynaptic currents (mIPSCs) in cultured hippocampal neurons; format: cell-based, mice
# postsynaptic GABAARs = experiment: Whole-cell currents evoked by exogenous GABA (10 μM) in cultured hippocampal neurons; format: cell-based, mice
# [3] = pretreatment before tibial osteotomy; cited from earlier work
# α5GABAARs [4] = target: T2, α5GABAARs (Mus musculus, UniProt P22723+Q8BHJ7); experiment: Tonic inhibitory current, whole cell voltage-clamp in cultured hippocampal neurons; format: cell-based, mice; parameters: endogenous in cells; host or cells: primary embryonic mouse hippocampal neurons, alone or co-cultured with cortical microglia; details: for effect on the tonic current (in words): cultured hippocampal neurons
# T2 sequence (Q8BHJ7 32-463 limits assumed): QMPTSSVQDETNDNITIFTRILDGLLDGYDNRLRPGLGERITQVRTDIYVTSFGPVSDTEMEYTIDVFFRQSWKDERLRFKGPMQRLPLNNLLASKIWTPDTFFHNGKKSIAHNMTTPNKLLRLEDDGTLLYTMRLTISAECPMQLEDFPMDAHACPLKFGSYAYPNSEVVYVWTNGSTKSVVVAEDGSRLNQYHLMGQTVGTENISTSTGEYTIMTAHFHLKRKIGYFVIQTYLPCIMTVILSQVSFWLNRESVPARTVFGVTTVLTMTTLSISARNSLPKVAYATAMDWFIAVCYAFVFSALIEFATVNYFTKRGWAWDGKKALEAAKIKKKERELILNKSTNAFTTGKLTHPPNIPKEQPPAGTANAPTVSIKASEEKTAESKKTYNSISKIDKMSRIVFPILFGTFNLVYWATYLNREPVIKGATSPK
# T2 sequence (P63080 26-473 partner): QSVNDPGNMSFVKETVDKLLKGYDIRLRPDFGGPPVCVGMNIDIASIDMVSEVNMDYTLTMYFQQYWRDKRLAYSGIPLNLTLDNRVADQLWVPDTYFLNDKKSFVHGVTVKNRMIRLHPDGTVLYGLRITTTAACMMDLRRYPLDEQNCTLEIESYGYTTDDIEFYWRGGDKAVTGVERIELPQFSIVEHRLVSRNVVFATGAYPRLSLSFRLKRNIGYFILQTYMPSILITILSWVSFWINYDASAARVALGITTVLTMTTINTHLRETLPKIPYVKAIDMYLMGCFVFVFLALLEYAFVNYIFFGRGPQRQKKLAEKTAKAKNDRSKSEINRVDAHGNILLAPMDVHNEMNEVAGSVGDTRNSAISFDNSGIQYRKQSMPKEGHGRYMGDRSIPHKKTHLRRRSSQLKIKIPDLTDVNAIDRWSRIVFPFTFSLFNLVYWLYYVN
# T2 sequence (P22723 39-474): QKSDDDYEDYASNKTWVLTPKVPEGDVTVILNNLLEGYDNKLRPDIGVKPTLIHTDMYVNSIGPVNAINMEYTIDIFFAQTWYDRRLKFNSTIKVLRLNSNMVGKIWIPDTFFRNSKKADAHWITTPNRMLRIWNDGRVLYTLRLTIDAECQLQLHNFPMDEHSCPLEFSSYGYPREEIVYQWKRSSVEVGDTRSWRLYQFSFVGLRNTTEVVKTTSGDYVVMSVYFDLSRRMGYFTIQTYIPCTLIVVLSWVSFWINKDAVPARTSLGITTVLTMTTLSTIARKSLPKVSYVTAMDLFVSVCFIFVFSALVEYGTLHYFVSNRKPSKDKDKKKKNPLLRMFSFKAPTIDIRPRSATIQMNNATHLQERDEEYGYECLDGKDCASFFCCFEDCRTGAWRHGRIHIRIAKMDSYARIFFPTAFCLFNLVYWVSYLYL
# α5GABAARs [5] = target: T2, α5GABAARs; experiment: Long-term potentiation of field postsynaptic potentials in hippocampal slices; format: cell-based, mice; parameters: endogenous in cells; host or cells: primary embryonic mouse hippocampal neurons, alone or co-cultured with cortical microglia
# Description: IL-1β could influence any of several molecular processes that regulate synaptic plasticity^50. The key question is whether α5GABAARs underlie the predominant effect of IL-1β on plasticity. Our working hypothesis is that IL-1β acts via α5GABAARs to inhibit LTP. […] After 3 hours, the mice were sacrificed and the hippocampi harvested. Extracellular field recordings were obtained with a recording electrode placed in the stratum radiatum of the CA1 subfield.
# The long-term potentiation (LTP) of evoked field postsynaptic potentials (fPSPs) was studied using previously described methods^29. […] Baseline stimulation frequency was 0.05 Hz. LTP was induced in the slices with theta burst stimulation (TBS), which consisted of 10 stimulus trains at 5 Hz, with each train consisting of 4 pulses at 100 Hz. The fPSPs were monitored for 10 min before TBS and for 60 min after TBS.
# α5GABAARs [6] = experiment: Tonic current in ex vivo hippocampal slices (CA1 pyramidal neurons); format: cell-based; details: slices from WT mice treated with IL-1β 1 μg kg^−1 i.p. 2-3 h before sacrifice, n=6
# Description: Recordings were performed as previously described^29. Hippocampal slices ([…]) were prepared from male 3- to 4-week-old WT mice with a mixed genetic background (C57BL/6/SvEv129). Mice were injected with vehicle (0.1% bovine serum albumin, i.p.) or IL-1β ([…], i.p.) 2-3 hours before sacrifice. To record the tonic GABAergic current, […] GABA was added, and the GABAAR competitive antagonist Bic ([…]) was applied to reveal the tonic current. All cells were recorded at a holding potential of −60 mV.
# α1 subunit of GABAARs = experiment: Hippocampal slice cell surface biotinylation assay; format: cell-based, C57BL/6 mice; details: IL-1β 20 ng ml−1, 40 min, n=5
# Description: (§1) Cell surface biotinylation assay for α5 and α1 subunits of GABAARs was performed as previously described^25. Hippocampal slices ([…]) from male 10- to 14-week-old C57BL/6 mice were treated with IL-1β (20 ng ml^1, 40 min). Anti-GABAAR α1 and α5 antibodies were obtained from PhosphoSolutions (Aurora, Calif., USA).
# α5 subunit of GABAARs = experiment: Hippocampal slice cell surface biotinylation assay; format: cell-based, C57BL/6 mice
# Description: as §1
# α5GABAARs [7] = target: T2, α5GABAARs; experiment: Fear conditioning after IL-1β or LPS injection; format: in vivo, mice
# Description: Pavlovian fear-conditioning tasks were used for behavioral analysis^29. LPS (125 μg kg^−1, i.p., with physiological saline as the vehicle control) or IL-1β (1 μg kg^−1, i.p., with 0.1% bovine serum albumin as the vehicle control) was injected into male 3- to 4-month-old WT and Gabra5−/− mice 3 h before conditioning. The intensity of the electric footshock was 0.5 mA. For some mice, the inverse agonist L-655,708 (0.35 or 0.5 mg kg^−1, i.p.) or vehicle control (10% DMSO, i.p.) was injected 30 min before training. The movement of the mouse was monitored. The percentage of time that each mouse spent in a freezing position was determined using FreezeView software (Version 2.26, Actimetrics Inc, Wilmette, Ill., USA).
# We have determined that IL-1β-induced impairment of contextual fear memory can be reversed by pharmacological inhibition of α5GABAA receptors by the inverse agonist MRK-016. Fear conditioning was performed 3 h after injection of IL-1β (1 μg kg^−1, i.p.) in both wild-type (WT) and α5GABAA receptor knock out (Gabra5−/−) mice. Mice were trained to associate a context (contextual fear) and a tone (cued fear) with an aversive electric footshock. 24 h after conditioning each mouse was placed in the training context, and contextual fear memory was measured as the percentage of time spent freezing. Cued fear memory was measured 48 h after training as the percentage of time spent freezing to the conditioned auditory tone in a novel context.
# [8] = IL-1β 20 ng ml^−1, IL-1ra 250 ng ml^−1, n = 6
# [9] = IL-1β 20 ng ml−1, GABA 10 μM, n=9
molecule,measurement,setting,value
CNC(=O)c1cc2c(cn1)[nH]c1ccccc12 [FG 7142],convulsant / anxiogenic properties (in words),[1],have epileptogenic and anxiogenic properties
Cc1cc(-c2nnc3c4ccccc4c(OCc4cn(C)nn4)nn23)no1 [α5IA],ethanol-induced memory impairment (in words),α5GABAA receptors,reversed memory impairment for word-list learning after the ingestion of ethanol; also recorded: attenuated ethanol-induced impairment of word recall
IL-1ra: naturally occurring IL-1 receptor antagonist that blocks the type 1 IL-1 receptor,effect on the tonic current (in words),α5GABAARs [2],fully reversed the enhancement of the tonic current
same,effect on mIPSCs (in words),synaptic GABAARs,this effect could be blocked by IL-1ra
same,effect on IL-1β inhibition of the GABA-evoked peak current (in words),postsynaptic GABAARs,this effect could be blocked by IL-1ra
same,postsurgical memory deficits (in words),[3],no memory deficits were detected
same,effect on the tonic current (in words),α5GABAARs [4],completely blocked by IL-1ra; also recorded: alone had no effect on the tonic or synaptic currents; also recorded: completely blocked both the increase in tonic current and the reduction of synaptic current by IL-1β
same,effect on LTP (in words),α5GABAARs [5],This inhibition of LTP was abolished by incubating the slices with IL-1ra
same,"LTP, slope of fPSPs","α5GABAARs [5]; slices from LPS-treated WT mice incubated with IL-1ra 100 ng ml^−1 for 1 h, n=10",126.2%±3.9%
"IL-1β: pro-inflammatory cytokine interleukin-1β; recombinant mouse IL-1β; IL-13 and IL-β in b369 are misprints (protein, UniProt P10749 118-269, looked up) Interleukin-1 beta: VPIRQLHYRLRDEQQKSLVLSDPYELKALHLNGQNINQQVIFSMSFVQGEPSNDKIPVALGLKGKNLYLSCVMKDGTPTLQLESVDPKQYPKKKMEKRFVFNKIEVKSKVEFESAEFPNWYISTSQAEHKPVFLGNNSGQDIIDFTMESVSS",reduction of the amplitude of the mIPSCs,synaptic GABAARs; IL-1β 20 ng ml^−1,17.3%±3.1%
same,reduction of the charge transfer of the mIPSCs,synaptic GABAARs; IL-1β 20 ng ml^−1,22.2%±7.0%
same,mIPSC Amplitude,"synaptic GABAARs; IL-1β 20 ng ml^−1, IL-1ra 250 ng ml^−1, mean ± S.E.M., n = 6",24.7 ± 2.1 pA
same,mIPSC Area,synaptic GABAARs; [8],279.0 pA · ms
same,mIPSC Decay time,synaptic GABAARs; [8],14.8 ± 1.1 ms
same,mIPSC Frequency,synaptic GABAARs; [8],3.7 ± 2.3 Hz
same,mIPSC Rise time,synaptic GABAARs; [8],2.4 ± 0.1 ms
same,inhibition of the GABA-evoked peak current,postsynaptic GABAARs; [9],27.8%±2.2%
same,inhibition of the GABA-evoked steady-state current,postsynaptic GABAARs; [9],12.7%±1.5%
same,tonic current,α5GABAARs [6],44.9±9.4 pA
same,surface expression of α1 subunits (in words),α1 subunit of GABAARs,caused no increase in the surface expression of α1 subunits
same,α5 subunits expressed on the surface of the neurons,"α5 subunit of GABAARs; IL-1β 20 ng ml−1, 40 min, n=3",183.3%±29.6%
same,surface expression of α5GABAARs (in words),"α5 subunit of GABAARs; IL-1β 20 ng/ml for 20 or 40 min, preliminary study",dramatically increases the surface expression of α5GABAARs
same,"contextual fear memory, Gabra5−/− mice (in words)",α5GABAARs [7]; IL-1β 1 μg kg^−1 i.p. or LPS 125 μg kg^−1 i.p.,exhibited no such deficits
same,"contextual fear memory, WT mice (in words)","α5GABAARs [7]; IL-1β 1 μg kg^−1 i.p. or LPS 125 μg kg^−1 i.p. 3 h before conditioning, inverse agonist co-administered",showed impairment of contextual fear memory
same,cued fear memory to a conditioned tone stimulus (in words),"α5GABAARs [7]; mouse, in vivo",cued fear memory to a conditioned tone stimulus was not affected by IL-1β
same,increase of the amplitude of the tonic current,α5GABAARs [4]; 20 ng ml^−1 for 20 min,45%
same,tonic current density,"α5GABAARs [4]; IL-1β 20 ng ml^−1 20 min with or without SB203,580 20 μM 30 min",1.4±0.1 pA pF^−1
same,variance of the noise (root mean square deviation),"α5GABAARs [4]; IL-1β 20 ng ml^−1 for 20 min, n=22",9.8±0.7 pA
same,tonic current density,"α5GABAARs [4]; IL-1β 20 ng ml^−1 for 20 min, revealed by bicuculline 100 μM, n=22",1.6±0.1 pA pF^−1
same,tonic current density,"α5GABAARs [4]; IL-1β 60 ng ml^−1 for 3 h, n=6",2.0±0.3 pA pF^−1
same,tonic current density,"α5GABAARs [4]; IL-1β for 12-15 h, n=21",1.3±0.6 pA pF^−1
same,effect on the tonic current (in words),α5GABAARs [4],increased the amplitude of the tonic current; also recorded: increased the tonic current recorded in wild-type (WT) neurons but not in neurons isolated from Gabra5−/− mice
